Results published in the nanobody polyreactivity screen of Harvey et al. (2022).

Test: yeast display, Sf9 membrane polyspecificity reagent, FACS + sequencing; frameworks hold sequencing errors
How it was run: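 Nanobodies from a synthetic yeast display library (Saccharomyces cerevisiae BJ5465), induced 36–48 hours with galactose, were stained 1 hour at 4 °C with 10% biotinylated, detergent-solubilized Sf9 membrane reagent, enriched on streptavidin microbeads, then FACS-sorted. Anti-HA (expression) and streptavidin (reagent binding) fluorescence set low and high (top ~1%) gates. Polyreactivity labels come from the gate of origin. Genes were colony-PCR amplified, MiSeq 2 × 250 sequenced and filtered by CDR length.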

Sequence	polyreactivity (PSR sort gate)
QVQLVESGGRLVQAGGSLRLSCAASGTFAVYTMGWYRQAPGKERELVAAISSGGSTYYADSVKGRFTISRDNAKNTVYLQMNSLKPEDTAVYYCNKPLSYGYDYWGQGTQVTVSS	high polyreactivity
QVQLVESGGGLVQAGGSHRLSCAASGRTFWYTMGWYRQAPGKERELVAAITWSGGSTYYADSVKGRFTISRDNAMNTVYLQMNSLNPEDTAVYYWNAADYQLWFGYDYWGQGTQVTVSS	low polyreactivity
QVQLVESGGRLVQAGGSLRLSCAASGRTFGPYAIGRYRQAPGKERELVAAITDTGSGTYYADSVKGRFTISRDNAKNTVYLQMNSLKPEDTAVYYCNAVRKYWGQGTQVTVSS	low polyreactivity
QVQLVDTGAGLVQAGGSLRISCAPSGNIFVDNVMGWYRQAPGKERELVAAIDYSGGSTYYADSVKGRFTISRDNAKNNVYLQMNSLKPEDTAVYYCNARTYYGFGMDFWGQGTQVTVSS	low polyreactivity
QVQLVESGGGLVQAGGSLRLSCAASGRTFWSNAMGWYRQAPGKERELVATISSGGGNTYYADSVKGRFTISRDNAKNTVYLQLNSLKPEDTAVYYCAATKYRWTYAASFGYWGQGTQVTVSS	high polyreactivity
QVQLVESGGGLVQAGGSLRLSCAASGITFRVYVMGWYRQAPGKERELVAAITRSGGRTYYADSVKGRFTISRDNAKNTVYLQMNSLKPEDTAVYYCAAEYDVYGIYEYDYWGQGTQVTVSS	high polyreactivity
QVQLVESGGGLVQAGGSLRLSCAASGITFSGNAKGWYRQAPGKERELDAAITFSGGITYYADSVKGRFTISRDNAKNTVFLQMNSLKPEDTAVYYSATDPIGGWTRPQRYGDDYWGQGTQVTVSS	low polyreactivity
QDQLVESGGGLVQAGGSLRLSFAASGRIIYYNAMGWYRQAPGKERELVAAISFSDGSTYYADSVKGRFTISRDNAKKTVYLQMNSLKPEDTAVYYCAADIGYYYDYWGQGTLVTVSS	low polyreactivity
QVQLVESRGGLVQAGGSLRLSCAASGIIFHFYAMGWYRQAPGKERELVAAINSRGGSTYYADSVKGRFTISRDNAKNTVYLQMNSLKPEDTAVYYCAAQYLFYGHDYWGQGTQVTVSS	low polyreactivity
QVQLVESGGGLVQAGGSLRLSCAASGRTFRLYAMGWYRQAPGKERELVAAITRGGRTNYADSVKGRFTISRDNAKNTVYLQMNSLKPEDTAVYYCAARYVEGHPDYYYWGQGTQVTVSS	low polyreactivity
QVQLVESGGGLVQAGGSLRLSCAASGSTFYYNAMGWYRQAPGKEREFVAAITYTGGSTDYADSVKGRFTISRDNAKNTVYLQMNSLKPEDTAVYYCAKGTYGYISTWYDYWGQGTQVTVSS	low polyreactivity
QVQLVESGGGLVQAGGSLRFSCAASGRIFRFYAMGWYRQAPGKERELVAAISSRGGSTYYADSVKGRFTISRDNAKNTVYLQMNSLKPEDTAVYYCNAYGSTSQLDYWGQGTQVTVSS	high polyreactivity
HGQLVESAAGLVQAGGSLRLSGAASGLIFYDNMGWYRQAPAKDRELVAAISSSGGSTSYADSVKGRFTISRDNAKNTFYLQMNSLKPEDTAVYYCAADSYPAYLGFVGFDYWGLGTQVTVSS	low polyreactivity
QDQLVDSGGGLLQAGGSLRLSCAASGSTLSKYAMGWNRQAPGKERELVAAISQRGGSTYYADSVKGRFTISRDNAKYTVYLQMNSLKPEDTAVSYCNALQRRYGYWGQGTQVTESS	high polyreactivity
QVQLVESGGGLVQAGGSLRLICAASGSTFWPYARGWYRQAPGNERELVAAITWSGGRTYYADSVKGRFTISRDNAKNTVYLQMNSLKPEDTAVYYCAADSYVLGRWYGYWGQGTQVTVSS	low polyreactivity
QVQLVESGGGLVQAGGSLRLSCAASGRIFKYNAMGWYRQAPGKEREFVARITSGGRTYYADSVKGRFTISRDNAKNTVYLQMNSLKPEDTAVYYCNAEDVRYWVRGYRMGYWGQGTQVTVSS	high polyreactivity
QVQLVESGGGLVQAGGSLRLSSAASGSIFYGNTMGWYRQAPGKERELVAAIRSVGRTYYADSVKGRFTISRDNAKNTDSLQMNSLKPEDTAVYYCAADPRSYFTSEYWGQGSQVTVSS	low polyreactivity
QVQLVESGGGLVQAGGSLRLSCAASGSTFRTNAMGWYRQAPGKERELVARIRYSVGSTYYADSVKGRFTISRDNAKNTVYLQMNSLKPEDTAVYYCAAENQRVGTFREHDSWGQGTQVTVSS	low polyreactivity
QVQLVESGGGLVQAGGSLRLSCAASGSISGVYAMGWYRQAPGKERELVAAISRSGGSTYYADSVKGRFTISRDNAKNTVYLQMNSLKPEDTAVYYCAAEYTYYSYGGNYDYWGQGTQVTVSS	low polyreactivity
QVQLVESGGGLVQAGGSLRLSCAASGSTFFLYAMGWYRQAPGKERELVAAITWRSGRTYYADSVKGRFTISRDNAKNTVYLQMNSLKPEDTAVYYCAADYVLGEVVRYDYWGQGTQVTVSS	high polyreactivity
QVQLVESGGGLVQAGGSLRLSCAASGINFWYYAMVGYRQATGKERELDAAITGGSTYYADSVKGRFTISRDNAKNTVYLQMISLKQEDTAVYYCNADSVFEYWDYDYWGQGTQVTVSS	low polyreactivity
QVQLVESGGGLVQAGGSLRLICAASGNIFDLYAMGWYRQAPGKERELVAAITRSSSRTYYADSVKGRFTISRDNAKNTVSLQMNSLKPEDTAVYYCRAKQVNRVDYWGQGTQVTVSS	high polyreactivity

Sequence	polyreactivity (PSR sort gate)
QVQLVESGGGLVQAGGSLRLSCAASGRIFNNYAMGWYRPAPGKERELVAAISTSGGSTYYADSVKGRFTISRDNAKNTVYLQMNSLKPEDTAVYYCNAVSRKRHYAPSYDYWGQGTQVTVSS	high polyreactivity
QVQLVESGGGLVQAGGSLRLSCAASGSTFRYYTMGWYRQAPGKERELVAAISSSGTRTYYADSVKGRFTISRDYAKNTVYLQMNSLKPEDTAVYYCDTVFLRSDGWRRSNMDYWGQGTQVTVSS	high polyreactivity
QVQHVESGGGLVQAGGSLRLSCAATGRIFKYYARGWYTQAPGKERELVAAISSTGGRTYYADSVKGRFTNSRDNAKNTVYLQMNSLKPEDTAVFSCAADYAWGDPGRARFGYWGQGTQVTVSS	high polyreactivity
QVQRVESGGGLVQAGGSLLLSCAASGSILYSYPMGWYRQAPGKERELVAAITGDGASTNYADSVKGRFTISRDNAKNTDYLQMNSLKPEDTAVYYCNAGRESDDVYEGSKRIGQFDYWGQGTLVTVSS	low polyreactivity
QVQLVESGGGLVQAGGSLRLSCAASGLIFQYYVMGWYRQAPGKERELVAAISARGGGTYYADSVKGRFTISRDNEKITVYLQMNSLKPEDTAVYYCAADFGTIRVYSGDYWGQGTQVTVSS	high polyreactivity
QVQLVESGGGLVQAGGSLPLSCAASGSIFLYNAMGWYRQAPGKERELVAGITFIGGSTYYADSVKGRFTISRDNAKNSVYLQMNSLKPEDTAVYYCNRLGVYWVGTEFDYWGQGTQVTLSS	low polyreactivity
EEELVESGGGLVQAGGSLRLSCAASGRTFVYNAMGWYRQAPWKERELVAAITSGDSTYYADSVKGRFTISRDNAKNTVYLQMNSLKPEDTAVYYCATDYSGIFYWYDYWGQGTQVTVSS	low polyreactivity
QVQLVESGGGLVQAGGTLRLSCAASGGIFTDYTMGWYRQAPGKERELVAAITWTGGSTYYADSVKGRFTISRDNAKNTVYLQMNSLKPEDTAVYYCAADDYWVNLDYWGQGTQVTVSS	low polyreactivity
QVQLVESGGGLVQAGGSLRLSCAASGYDMGWYRQAPGKERELVAAISRGGSTSYADSVKGRFTISRENAKNTVYLQMNSLKPEDTAVYYCAARYGSYRVGYDYWGQGTQVTVSS	low polyreactivity
QVQRVESGGGLVQAGGSLRFSCAASGSTFSYYAMGWYSQAPGKERELVAVISRGGSTNYADSVKGRFTISRDNAKNTVYLQMNSLKPEDTAVYYCAAYVLPWRGRGQTEYGYSGQGTQVTVSS	low polyreactivity
QVQLVETGGGLVQARGSLRLSCAASVSILYGNAMGWYRQAPGKERELVAAISRGGSTYYADSVKGRFTISRDNAKNTVYLQMNSLKPEDTAVYYCNALYTSYYRPSGMGYWGQGTQVTVSS	high polyreactivity
QVQLVESGGGLVQAGGSLRLSCAASGRIFPDNTMGWSRQAPGKERELVAVITYSGGSTYYADSVKGRFTISRDNAKNTVYLQMNSLKPEDTAVYYCAKTLGSQNYDFDYWGQGTQVTVSS	low polyreactivity
QVQLVESGGGLVQAGGSLRLSCAASGSTFPTNAMGWYRQAPGKERELDAGITEGGSSTYYADSVKGRFTISRDYAKNTVYLQMNSLKPEDTAVYYCAADVLWYGPFWVRQDDYWGQGTQLTVSS	high polyreactivity
QVQLVESGGGLVQAGGSLRLSCAASGFIFTSYAMAWYRQAPGKERELVAAIDYSGGSTYYADSVKGRFTISRDNAKNTVYLQINSLKPEDTAVYYCSAGEGLWPGSQTYDYWGQATQVTVSS	low polyreactivity
QVQHVESGGGLVQAGGSLRLSCAASGSIFYVNAMGWYRQAPGKERELVAAITRDGSTNYADSVKGRFTISRDNAKNTVYLQMNSLKPEDTAVYYCAADFVRYIDREDYWGQGTQVTVSS	low polyreactivity
QVQLVESGGGLVQAGGSLRLSCAASGRTFWANAMGWYRQAPGKERELVAAITSGGSTNYADSVKGRFTISRDNAKNTVYLQMNSLKPEDTAVYYCAAAINRYRRTFNYWGQGTQVTVSS	high polyreactivity
QVQLVESGGGLVQAGGSLRLSCAASGFTFIVNPMGWYRQAPGKERELVAAISWNGGSTYYADSVKGRFTISRDNAKNTVYLQMNSLKPEDTAVYYCAVLYRSEYVWGQGTQVTVSS	low polyreactivity
QVQLVESGGGLVQAGGSLRLSCDASGSTFYPNAMGWYRQAPWKERELVAAITTSGGSTYYADSVKGRFTISRDNAKNTVYLQMNSLKPEDTAVYYCAAEVRDRGLEPYGPIYDYWGQGTQVTVSS	high polyreactivity
QVKLVESGGGLVQAGGSLRFTCAASGRTFGSNAMGWYRQAPGKERELVAVITTSGGSTYYADSVKGRFTISRDNAKNTVYLQMISLKPEDTAVYSCAKRVATGYKSYGYGYWGQGTQVTVSS	high polyreactivity
QVQLVESGGGLVQAGGSLRLSCAASGFIFRPYTMGWYRQAPGKERELVAAITYSGGSSTYYADSVKGRFTISRDNAKNTVYLQMNSLKPEDTAVSYCATTPDYGHDYWGQGTQVTVSS	low polyreactivity
QVQLVESGGGLVQAGGSLRLSCAASGFTFYYYAMGWYRQAPGKERELVAAISIGGSTYYAGSVKGRFTISRHNEKNTVYLQMNSLKPEDTAVYYCNVVFTYWPPGTARYDYSGQGTQVTVSS	high polyreactivity
